# From the DeepSol protein solubility set
# Assay: soluble on expression in E. coli; label from the status in PepcDB or PDB records
row,Sequence,soluble on expression in E. coli
1,MRKLWVAFFASLVLAMPSWVSARSHAGGGADVHLPVGHMWKHEGLDEQKWMEMVQKYTPEQEEEWKKVLDERNALRQQLNDENVKQAIKEKCKKMKKEREAALDRLIDQLVDKKITKEQFKKEWKQLHKKKQWMTKEEKQQLHLLHEQTRQAMENNDQEAMKKLLPQWLDHMKKKNERLAKWLQEVKQG,not soluble
2,MRKMADPLVPKEALEWFKSKGIKPGFDYRDVWKEEQANAFTVAKMLNADLLVEVKQLVEDAIGQGQTFEQFRDILKPLLVKSGWWGVQTMQDPLTDETKLVQLGSEGRIKTIYKTNMRTARSAGQWERIQRTKRTMPYLLYQLGPSEQHRIEHLKWNNTLLPADDPWWDVHMTPNGWGCKCWIRQVSQYEADKLIAAGTVKTTVPASKNKQWVNRRTGEVEVLPEGIDPGWNYNPGKNREKMLAADLALKESRMRQTLANGS,soluble
3,MRKMMPMNPKQLKKLMKQLDMRQLEGVKEVIIKMEDREIIIKEPIVTVIKAMGEKMYQIAGGSEEEKAIINISEEDIKLVMEQAGVDYETAKKALEETGGDLAEAILRLTDSGVE,soluble
4,MRKQALHPRTAVINKAQKNQSKRARSDALLWLAANFPEAFDNSLRIRPLKIGIMSDILQHAEKAEQVGISKSKLREAVVLFTRRLDYLACLKAREVRIDLHGNPVAEVTEEEAEHASMKIKKRVEKSVKNARKQVNAKAANHSHVNSQPSAVSSVKPMNSFDSHPEPLLPIYPLRSSTYASQNVAMQSAKSPSVVVKHKAPKQYDPDAVARLKEKLGLSRKAEEKKETTE,not soluble
5,MRKRLSAPELRLSLTKGPGNDGASPTQSAPSSPDGSSDLEIDELETPSDSEQLDSGHEFEWEDELPRAEGLGTSETAERLGRGCMWDVTGEDGHHWRVFRMGPREQRVDMTVIEPYKKVLSHGGYHGDGLNAVILFASCYLPRSSIPNYTYVMEHLFRYMVGTLELLVAENYLLVHLSGGTSRAQVPPLSWIRQCYRTLDRRLRKNLRALVVVHATWYVKAFLALLRPFISSKFTRKIRFLDSLGELAQLISLDQVHIPEAVRQLDRDLHGSGGT,not soluble
6,MRLALADAGDTVEDANFVEAMADAGILRLYTWVEWVKEMLASCSSLRSGPADSFNDRVFASEMNAGIIKTDQNYEKMMFKEALKTGFFEFQAAKDKYRELATEGMHRELVFRFIEVQTILLTPFCPHLCEHIWTLLGKPDSIMHASWPVAGPVDESLIRSSQYLMEVAHDLRLRLKNYMMPAKGKKTDKQPAQRPSHCTIYVAKNYPAWQHITLTTLRSHFEANNGKLPDNKVIASELGSLPELKKYMKKVMPFVAMIKENMEKKGPRVLDLELEFDEQAVLMENIVYLTNSLELEHIDVKFASEAEDKVREECCPGKPLNVFRTEPGVPVSLINPQPSSGHFSTKIDIRQGDSCESIIRRLTKTDRGIKDLSKVKLMRFDDPLLGPRRVPVLGREHSEKTLISENAVFHVDLVSKKVHLTENGLRMDIGDTMVYLVH,not soluble
7,MRLDYWSDSSKPIQQQWRDYDEISDNFKKAVVAAEDGKFVHHHGFDWEGIQYALEKNEKSGEVVNGGSTISQQLAKNLFLYNQRSLIRKGQEAIATWMMERMWSKQRILEVYMNSVQFGDHLYGVEAASHYYFHRSAQNLTRDQAAFLAALLPNPKYYQENRNDPRFKFKKRFTLKYMRYSEIP,not soluble
8,MRLFAIVLLCLVLATCASHIPSARVTHPASAGLPGLQGFQLMPPEQAVDALPYRNRYPLINAELRQGLAAHGYHESATPQFRVYYWLALRDAPLEFRPDLPPTSGMGPYLAIHRLRDETGTLRVRLVDLEERVLWEGMVSTGLSPARANPEQLELAVGALLRQLPRAR,not soluble
9,MRLLYVIKKENPMDQMPNCPKCQSEYVYHDSINFVCPDCGNEWDNNEIQESDDDQLIVKDSNGNLLAEGDNVLLIKDLKLKGSSEVLKKGTKFKNIRLVNGDHNVDCGKIMLKSEFLKKALEHHHHHH,soluble
10,MRLTSKGRYAVTAMLDVALNSEAGPVPLADISERQGISLSYLEQLFSRLRKNGLVSSVRGPGGGYLLGKDASSIAVGEVISAVDESVDATRCQGKGGCQGGDKCLTHALWRDLSDRLTGFLNNLEHHHHHH,not soluble
11,MRLWRICFKDPEPFIELYFHKVFREDYTLLQYSETGEAVAHLQMLPYQLRIFGTSFSAGYISGACTHPDHRGKGIMRTMMAEALSAIYDRGDICSFLIPAETWLYDFYSRSGGYAPAFGRKQFLYRPNSIPQKFPSGYACTIGQGDYSFLSAEEHTDIRLAVQHTLGQWQTALKDFSLAGGNVAMLQDSAGKTVSQACFVPRENSLDIKLLVGDAEATFILVDHLLRSLDCDHASILAHSGSAPYGMLRILRPIPILEAFAQYHPAEGYSFAYSDPLFSQHNGTYHISKGRIVFSNNVQPENSLLPHHTPDSLVKDLFSPFPSALFLMLD,not soluble
12,MRMENQKDLQENYLKVLERVELGSRVSGTVVNIMKDYVLVDIGYKSEGFIKIEEFENVPQVGDRLEAIVVRIGGELGLILSVEKLNSLNFQDKVYEYIQNKKIIKGKVLVELPNGYKIQINENVSGFMPFYLSSKSKDEKLKRGSVVEFYILEASEADGLRLILDRRTLEKERDLAKRIELVSSYNEEDVVDGVVERITEYGAIVKIKNFVTGILHKRNIAFNQVENVEDFVRVGDKLKLKIIKINPQTGKMELSLKALKANPWDSVDVKYKIDSIVKGKVVKILPFGAVIELDSELSGFLHISNFSWIRVVKSPQELIKLGQIVEVKILEIDKENQKISLGIKQINENPWERLTEKYPIGRVVQGVVTNITKTGAFVNIEEGIDAYVSKFDISWLEEIDPEEYFKIGDLVNGKVLEVDKRKRNVRLGIKQLEESPWEDFSKSYKKGDTIEVEIVEKKSKGFQVRVYNKIMGFISKIQLGDTKESSLETFEKLNVGDKLKVVITSIDSKDKSVLLSYREYENQRSREEISSYLFKGNDEESYKPFENLLKRDELEHHHHHH,soluble
